Assay results: patent US20240317834A1, “COMPOSITIONS AND METHODS FOR NEUROLOGICAL DISEASES” (CODA BIOTHERAPEUTICS, INC., priority 2020, published 2024)

System: Lenti-X 293T cells
Assay: YFP fluorescence quenching anion reporter plate reader assay of engineered receptors stimulated with acetylcholine or a non-native ligand
Format: cell-based
Procedure, shortened: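 Lenti-X 293T cells carrying a YFP anion reporter were transiently transfected with channel DNA and assayed the next day in HEPES-buffered ECS at pH 7.2. Ligand (acetylcholine or non-native ligand) was added in NaI-substituted ECS. Percent quench was the mean of the last 10 s relative to the 15 s pre-addition baseline.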

B1: CODA75: non-responding chimeric engineered receptor used as the negative control (protein)
chain: MRCSPGGVWLALAASLLHVSLQGEFQRKLYKELVKNYNPLERPVANDSQPLTVYFSLSLLQIMDVDEKNQVLTTNIWLQMSWTDHYLQWNVSEYPGVKTVRFPDGQIWKPDILLYNSADERFDATFHTNVLVNSSGHCQYLPPGIFKSSCYIDVRWFPFDVQHCKLKFGSWSYGGWSLDLQMQEADISGYIPNGEWDLVGIPGKRSERFYECCKEPYPDVTFTVTMRRRTGYYLIQMYIPSLLIVILSWISFWINMDAAPARVGLGITTVLTMTTQSSGSEIMPATSDSVPLIAQAIDIWMAVCLLFVFSALLEYAAVNFVSRQHKELLRFRRKRRHHKSPMLNLFQEDEAGEGRFNFSAYGMGPACLQAKDGISVKGANNSNTTNPPPAPSKSPEEMRKLFIQRAKKIDKISRIGFPMAFLIFNMFYWIIYKIVRREDVHNQ
modifications: synthetic sequence of chimeric LGIC
notes: non-responding chimeric engineered receptor used as the negative control
- YFP fluorescence quenching using CNL001 (1 nM CNL001, first column): −8.496%
- YFP fluorescence quenching using CNL001 (1 nM CNL001, second column): −2.266%
- YFP fluorescence quenching using TC-5619/Bradanicline (1 nM brd): −13.39%
- YFP fluorescence quenching using TC-5619/Bradanicline (3 nM brd): −15.78%
- YFP fluorescence quenching using Varenicline (3 nM var, first column): 4.161
- YFP fluorescence quenching using Varenicline (3 nM var, second column): −6.216
- YFP fluorescence quenching using CNL001 (10 nM CNL001, first column): 1.816%
- YFP fluorescence quenching using CNL001 (10 nM CNL001, second column): −4.649%
- YFP fluorescence quenching using TC-5619/Bradanicline (10 nM brd): −13.47%
- YFP fluorescence quenching using TC-5619/Bradanicline (30 nM brd): −16.41%
- YFP fluorescence quenching using Facinicline (30 nM fac): −11.68
- YFP fluorescence quenching using Varenicline (30 nM var, first column): −5.173
- YFP fluorescence quenching using Varenicline (30 nM var, second column): −6.593
- YFP fluorescence quenching using CNL001 (50 nM CNL001, first column): −5.922%
- YFP fluorescence quenching using CNL001 (50 nM CNL001, second column): −5.597%
- YFP fluorescence quenching using ABT-126 (50 nM abt): −17.07%
- YFP fluorescence quenching using CNL001 (100 nM CNL001, first column): −8.159%
- YFP fluorescence quenching using CNL001 (100 nM CNL001, second column): −5.058%
- YFP fluorescence quenching using CNL002 (100 nM CNL002): −7.94%
- YFP fluorescence quenching using ABT-126 (100 nM abt): −16.76%
- YFP fluorescence quenching using AZD-0328 (100 nM azd0328): −8.83%
- YFP fluorescence quenching using Facinicline (100 nM fac): 4.35
- YFP fluorescence quenching using ABT-126 (300 nM abt): −16.76%
- YFP fluorescence quenching using AZD-0328 (300 nM azd0328): −11.15%
- YFP fluorescence quenching using TC-5619/Bradanicline (300 nM brd): −17.56%
- YFP fluorescence quenching using Facinicline (300 nM fac): −10.55
- YFP fluorescence quenching using Varenicline (300 nM var, first column): −5.733
- YFP fluorescence quenching using Varenicline (300 nM var, second column): −7.312
- YFP fluorescence quenching using ABT-126 (500 nM abt): −14.68%
- YFP fluorescence quenching using Varenicline (500 nM var, first column): −10.35
- YFP fluorescence quenching using Varenicline (500 nM var, second column): −7.586
- YFP fluorescence quenching using CNL001 (1 uM CNL001, first column): −4.272%
- YFP fluorescence quenching using CNL001 (1 uM CNL001, second column): −1.281%
- YFP fluorescence quenching using CNL002 (1 uM CNL002): −9.81%
- YFP fluorescence quenching using ABT-126 (1 uM abt): −16%
- YFP fluorescence quenching using TC-6987 (1 uM tc6987): −11.79
- YFP fluorescence quenching using Varenicline (1 uM var, first column): −5.637
- YFP fluorescence quenching using Varenicline (1 uM var, second column): −3.757
- YFP fluorescence quenching using ABT-126 (3 uM abt): −14.11%
- YFP fluorescence quenching using ABT-126 (10 uM abt): −13.98%
- YFP fluorescence quenching using TC-6987 (10 uM tc6987): −14.31
- YFP fluorescence quenching using CNL002 (30 uM CNL002): −15.27%
- YFP fluorescence quenching using ABT-126 (30 uM abt): −21.05%
- YFP fluorescence quenching using AZD-0328 (30 uM azd0328): −11.92%
- YFP fluorescence quenching using Facinicline (30 uM fac): −5.25
- YFP fluorescence quenching using ABT-126 (50 uM abt): −21.35%
- YFP fluorescence quenching using ABT-126 (100 uM abt): −24.12%
- YFP fluorescence quenching using TC-6987 (500 uM tc6987): −19.65
- percent quench of YFP fluorescence, 10 uM ach (acetylcholine 10 uM): −12.88%
- percent quench of YFP fluorescence, 30 uM ach (acetylcholine 30 uM): −18.67%
- percent quench of YFP fluorescence, 50 uM ach (acetylcholine 50 uM): −0.29%
- percent quench of YFP fluorescence, 100 uM ach (acetylcholine 100 uM): −14.46%
- percent quench of YFP fluorescence, 300 uM ach (acetylcholine 300 uM): −16.31%
- percent quench of YFP fluorescence, 500 uM ach (acetylcholine 500 uM): −17.41%
- percent quench of YFP fluorescence, 1 mM ach (acetylcholine 1 mM): −16.46%
- percent quench of YFP fluorescence, 3 mM ach (acetylcholine 3 mM): −12.38%
- percent quench of YFP fluorescence, 5 mM ach (acetylcholine 5 mM): −20.88%
- percent quench of YFP fluorescence, 10 mM ach (acetylcholine 10 mM): −8.69%
